Laboratory results from IntAct's records for PubMed 21139564.

B1: Eukaryotic initiation factor 4F subunit p150 (Saccharomyces cerevisiae), P39935 (parent)
chain: MTDETAHPTQSASKQESAALKQTGDDQQESQQQRGYTNYNNGSNYTQKKPYNSNRPHQQRGGKFGPNRYNNRGNYNGGGSFRGGHMGANSSNVPWTGYYNNYPVYYQPQQMAAAGSAPANPIPVEEKSPVPTKIEITTKSGEHLDLKEQHKAKLQSQERSTVSPQPESKLKETSDSTSTSTPTPTPSTNDSKASSEENISEAEKTRRNFIEQVKLRKAALEKKRKEQLEGSSGNNNIPMKTTPENVEEKGSDKPEVTEKTKPAEEKSAEPEVKQETPAEEGEQGEKGQIKEESTPKVLTFAERLKLKKQQKEREEKTEGKENKEVPVQEETKSAIESAPVPPSEQVKEETEVAETEQSNIDESATTPAIPTKSDEAEAEVEAEAGDAGTKIGLEAEIETTTDETDDGTNTVSHILNVLKDATPIEDVFSFNYPEGIEGPDIKYKKEHVKYTYGPTFLLQFKDKLNVKADAEWVQSTASKIVIPPGMGRGNRSRDSGRFGNNSSRGHDFRNTSVRNMDDRANSRTSSKRRSKRMNDDRRSNRSYTSRRDRERGSYRNEEKREDDKPKEEVAPLVPSANRWVPKFKSKKTEKKLAPDGKTELLDKDEVERKMKSLLNKLTLEMFDAISSEILAIANISVWETNGETLKAVIEQIFLKACDEPHWSSMYAQLCGKVVKELNPDITDETNEGKTGPKLVLHYLVARCHAEFDKGWTDKLPTNEDGTPLEPEMMSEEYYAAASAKRRGLGLVRFIGFLYRLNLLTGKMMFECFRRLMKDLTDSPSEETLESVVELLNTVGEQFETDSFRTGQATLEGSQLLDSLFGILDNIIQTAKISSRIKFKLIDIKELRHDKNWNSDKKDNGPKTIQQIHEEEERQRQLKNNSRSNSRRTNNSSNRHSFRRDAPPASKDSFITTRTYSQRNSQRAPPPKEEPAAPTSTATNMFSALMGESDDEE
partner: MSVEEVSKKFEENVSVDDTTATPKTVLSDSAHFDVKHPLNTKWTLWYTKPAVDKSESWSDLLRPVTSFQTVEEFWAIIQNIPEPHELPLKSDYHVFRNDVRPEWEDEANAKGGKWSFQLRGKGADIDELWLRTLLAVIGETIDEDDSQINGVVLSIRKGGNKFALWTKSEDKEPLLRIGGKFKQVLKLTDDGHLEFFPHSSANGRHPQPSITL

Variants of: B1
Conditions: with if4e_yeast CDC33, P07260

Variant	effect of a mutation on the interaction
V213A;K214A;L215A;R216A;L457A;L458A	decreasing interaction strength
L457A;L458A	decreasing interaction
